Patent US20050249746A1
Values joined by “and” are separate entries in the source; they are usually repeats but may differ in a detail not shown here. Equal values may be shown once.

How the values were obtained:
[1] = biological target: wild-type recombinant lipoprotein P4 (rLP4) of non-typable Haemophilus influenzae (non-typable Haemophilus influenzae) (UniProt P26093); experiment: ELISA on coated wild-type rLP4; week 0 serum
[2] = biological target: wild-type recombinant lipoprotein P4 (rLP4) of non-typable Haemophilus influenzae (non-typable Haemophilus influenzae) (UniProt P26093); experiment: ELISA on coated wild-type rLP4; preimmune serum pool

## pre-immune mouse serum (antibody)
[1]
  Anti-rP4 ELISA titer: 53 titer and 62 titer
  ELISA titer: 53 titer
[2]
  ELISA titer: 82 titer and 65 titer
